Patent US20080145339, “Adeno-associated virus AAV Rep78 major regulatory protein mutants thereof and uses thereof” (University of Arkansas, published 2008)

Biological target: T1, AAV Rep78 wild-type (adeno-associated virus 2, UniProt Q89268 SEQ:1-621)
T1 sequence: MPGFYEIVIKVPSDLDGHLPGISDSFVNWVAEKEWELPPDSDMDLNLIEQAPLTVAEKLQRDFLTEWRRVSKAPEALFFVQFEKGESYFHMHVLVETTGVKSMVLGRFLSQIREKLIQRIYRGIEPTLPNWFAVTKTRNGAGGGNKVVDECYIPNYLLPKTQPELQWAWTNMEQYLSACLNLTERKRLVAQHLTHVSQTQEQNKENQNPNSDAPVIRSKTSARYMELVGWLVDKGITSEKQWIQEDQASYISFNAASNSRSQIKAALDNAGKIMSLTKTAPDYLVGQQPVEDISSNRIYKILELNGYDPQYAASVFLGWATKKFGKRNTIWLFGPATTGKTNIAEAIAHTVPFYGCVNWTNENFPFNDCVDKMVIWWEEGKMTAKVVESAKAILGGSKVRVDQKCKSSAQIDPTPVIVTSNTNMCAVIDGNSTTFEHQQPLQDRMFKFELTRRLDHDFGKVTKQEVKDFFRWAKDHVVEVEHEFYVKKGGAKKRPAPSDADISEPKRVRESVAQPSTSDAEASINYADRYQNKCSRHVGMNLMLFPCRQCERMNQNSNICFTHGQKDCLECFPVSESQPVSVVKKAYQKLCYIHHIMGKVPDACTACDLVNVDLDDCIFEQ
Test: EMSA; minus strand strongly recognized
Settings: tags: MBP fusion (pMALc2, amylose purified); label: 32P

B1: HPV-16 p97 minus strand nt 14-106 (ssDNA)
DNA: CATTGCAGTTCTCTTTTGGTGCATAAAATGTCTGCTTTTATACTAACCGGTTTCGGTTCAACCGATTTCGGTTACGCCCTTAGTTTTATACAT
modifications: [NONE]
B1: binds.
